Results on 97 substances are retold here after the supplement of paper PMC12042874.

± gives the uncertainty stated by the source.

The nature of this data set: amyloid nucleation score (Sup35N fusion, yeast selection) (log enrichment); library NNK3; higher = more nucleation; inactive = no reads after selection. Put shortly:
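The nucleation score is the log enrichment of output over input reads, calculated with DiMSum and centred on the mode score of non-aggregating sequences. Sequences with under 100 input reads were excluded. Reads came from Illumina sequencing of plasmid inserts from psi-negative yeast expressing Sup35N fused to peptides of 20 random codons, induced 24 hours with 100 μM copper sulfate and grown 7 days at 30°C without adenine and uracil.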
In turn, ILWSILVYLTLITVLCLCHF yielded an amyloid nucleation score of 0.444 ± 0.26.
The same measure for IANRKSGMKSTRKKESWH: “inactive”; for LIACSHSRNT: “inactive”; for RHEVYSTANYHVCSCRFFIV: 0.406 ± 0.17.
With KCFISYR the entry was “inactive”; with YSTMLLVHYMFLKIE, “inactive”.
Consider TPCNRREISWFVFSLPA, for which the amyloid nucleation score result is “inactive”.
With EVPLDVAVKGRLW the entry was “inactive”; with RLLLGTIYSFLKLHGDFNGR, “inactive”.
The same measure for EYQLYCVYHLYANLDTVVRT: “inactive”; for FPKLWLFNYYVNRRIRSSSF: “inactive”; for EVYMFFSCPSSNHVWDSRYV: “inactive”.
Take RSNLIILSAHYRLYMDLRCA: the amyloid nucleation score result was “inactive”.
In the case of GKTNNLLSFFSKTPLTFSCL, the amyloid nucleation score entry was “inactive”.
The same measure for MLDCF: “inactive”; for HRCDAWYYRS: “inactive”; for TLIHGGFTYLDQWKDETCPQ: “inactive”.
Take HGSYLMRILR: the amyloid nucleation score entry is “inactive”.
In turn, CIMALGSNVLFRLEN showed an amyloid nucleation score of 1.51 ± 0.091.
The same measure for SWYDHWSLIQDGLKRVNGG: “inactive”.
For the substance GTLWNSIFACVFQCSERSIM, the amyloid nucleation score result was “inactive”.
With VAAMYGILMMLMELVWSDAR the entry was “inactive”; with NLVWICFFNGRNYLSMRDRA, 1.34 ± 0.15; with IRLYFQYFLLSG, 2.35 ± 0.063.
With IKWEQRLVVYIAYKKHRWQR the entry was “inactive”; with MISNHCYSLTMIAE, -0.432 ± 1; with HFSYKSKCVGGRFLNDIDVY, “inactive”.
Turning to YQERL, the amyloid nucleation score entry is “inactive”.
The same measure for LKVKLANR: “inactive”.
The same measure for VCYKPFTSVYLVCTYHLFKS: “inactive”; for TFCFPWL: “inactive”; for ELVGIIDGCLKNMSSFTMRV: “inactive”.
With RAMCIESTYLVMPYTTCNQT the entry was “inactive”.
On to TREIIYRDGQALQIAGWVSP, for which the amyloid nucleation score result is “inactive”.
Consider MDEGIVKTELFYRWRISRLG, for which the amyloid nucleation score result was “inactive”.
For NQVISFWYSIQYCYEYSRNS, the amyloid nucleation score result was “inactive”.
For the substance IRASFEPWVLVRVFYSLCYG, the amyloid nucleation score result is “inactive”.
As for AYFIPYNTWFYKKGMARQFF, the amyloid nucleation score result was “inactive”.
The same measure for NLLNSFIFSRLRRVEGGMFG: “inactive”; for CVRSTCQALGMGRWEPHCAI: “inactive”; for VVEGSILACVNRGGKKYYDC: “inactive”.
With LSGSLTTISIITGGVDCD the entry was “inactive”; with SLNLWGLRSKVPDVWRMLMR, “inactive”; with LRWFFVHPQWIRGCGLAMLS, “inactive”.
In turn, RHGSCMTVCVYSSMLSYRST showed an amyloid nucleation score of 0.163 ± 0.31.
With TVNYYRQNSIIMFESYNECC the figure was 0.579 ± 0.17.
The same measure for GGSVWWY: “inactive”; for HFQIIC: “inactive”.
Substance WSFMYVYVC yielded an amyloid nucleation score of 1.71 ± 0.06.
YGLTVCTTGLVFNNWMGSMV showed an amyloid nucleation score of 1.83 ± 0.11.
With CWLNLGVLKSLY the entry was “inactive”.
The same measure for VDTYHTFVVVLH: “inactive”; for YISHWASGSFIVNYIERWMR: 0.707 ± 0.29.
With GVGFQGYVTRGKNRLRDRAQ the entry was “inactive”.
Substance YDVPTSTDSLFATFVYYGRR showed an amyloid nucleation score of 1.44 ± 0.12.
For LGMSYVYTTGLQKQAASQ, the amyloid nucleation score entry is “inactive”.
The same measure for VIDWAYSPKPSDLTG: 1.09 ± 0.16; for NSLMYFRGKFLFSIYNCYVH: “inactive”.
With PVLSYSVLRYL the entry was “inactive”; with VNYDSVLYLVFLCIYLHKNR, “inactive”; with VMVRTNMCR, “inactive”.
The same measure for MCIHSITECRS: “inactive”; for PFCRMKLGMTLRALLLVMGS: “inactive”; for FEYLLGKLCRLCSNAGRSLS: “inactive”.
For the substance FCDALMIVTEFGEGLWARWR, the amyloid nucleation score result is “inactive”.
With IVVNT the entry was “inactive”; with LNLGIFV, “inactive”; with FCCHYSKLFRR, 0.641 ± 0.41.
With QVRNSDRFSCIGSANIRKSL the entry was “inactive”; with LLDENGGHYSSIRAISDGGI, “inactive”; with ERFIKN, “inactive”.
With YISLISCMGKVNY the figure was 2.31 ± 0.089; with VRNRWA, “inactive”; with PDNFNSRFNTRFKTHTRHPT, “inactive”.
Consider CYRYAIMNAFS, for which the amyloid nucleation score result was “inactive”.
The same measure for GVTCKHRPAKYVQDRMNF: “inactive”.
With ILGFLCPLFSFFFSGGYFLG the entry was “inactive”.
The same measure for FELSYNWYNSNFVRRNVPFP: “inactive”; for YLNISGWSYFNCTRSWLLNR: “inactive”; for RWLTVKPSRIRLWGCSWGLR: “inactive”.
For the substance KLICVRTDWWSCVIISRFSL, the amyloid nucleation score result was “inactive”.
As for HFLHYRPTGNHRLFWIRKDY, the amyloid nucleation score result was “inactive”.
The same measure for CIKTCSCLSLPGLRFSPAIS: “inactive”.
The same measure for RFSCCYRPLLYNQKVEWWRG: “inactive”; for EKWQKDLSNKHVRNAVVAWS: “inactive”; for SLGTIMFVCGGPRGHLCSVR: -0.414 ± 1.4.
The same measure for FSSNTT: “inactive”; for STGRRPTWATQRLWLWRQQL: -0.091 ± 0.87; for PVVTVGYLDRMFISFLFSRI: “inactive”.
With SSIAMHCILIVFLKGLCVFR, the amyloid nucleation score entry is “inactive”.
The same measure for KSVRNTAHLWHCVLTIYVYL: “inactive”; for HGIRYTCWRWECSNVGGSSS: “inactive”.
The same measure for VILLSLAY: “inactive”; for YIDFVPLVYTRKFDGEETCI: “inactive”.
The same measure for VKLSL: “inactive”; for VIRVLQPFDCGCILYSCLIS: “inactive”; for VCNQS: “inactive”.
